Experimental data reported in patent US20240376163.

T1: GST-tagged CABIN1-L-1-2
T1 chain: PEITVTPPTP

T2: GST-tagged VIVIT PPTP
T2 chain: PVIVITPPTP

T3: GST-tagged VIVIT peptide (VIVIT 10-mer)
T3 chain: PVIVITGPHE

B1: MKK4 (activated recombinant kinase) (protein)
chain: MAAPSPSGGGGSGGGSGSGTPGPVGSPAPGHPAVSSMQGKRKALKLNFANPPFKSTARFTLNPNPTGVQNPHIERLRTHSIESSGKLKISPEQHWDFTAEDLKDLGEIGRGAYGSVNKMVHKPSGQIMAVKRIRSTVDEKEQKQLLMDLDVVMRSSDCPYIVQFYGALFREGDCWICMELMSTSFDKFYKYVYSVLDDVIPEEILGKITLATVKALNHLKENLKIIHRDIKPSNILLDRSGNIKLCDFGISGQLVDSIAKTRDAGCRPYMAPERIDPSASRQGYDVRSDVWSLGITLYELATGRFPYPKWNSVFDQLTQVVKGDPPQLSNSEEREFSPSFINFVNLCLTKDESKRPKYKELLKHPFILMYEERAVEVACYVCKILDQMPATPSSPMYVD
B2: JNK1 (activated recombinant kinase) (protein)
chain: MSRSKRDNNFYSVEIGDSTFTVLKRYQNLKPIGSGAQGIVCAAYDAILERNVAIKKLSRPFQNQTHAKRAYRELVLMKCVNHKNIIGLLNVFTPQKSLEEFQDVYIVMELMDANLCQVIQMELDHERMSYLLYQMLCGIKHLHSAGIIHRDLKPSNIVVKSDCTLKILDFGLARTAGTSFMMTPYVVTRYYRAPEVILGMGYKENVDLWSVGCIMGEMVCHKILFPGRDYIDQWNKVIEQLGTPCPEFMKKLQPTVRTYVENRPKYAGYSFEKLFPDVLFPADSEHNKLKASQARDLLSKMLVIDASKRISVDEALQHPYINVWYDPSEAEAPPPKIPDKQLDEREHTIEEWKELIYKEVMDLEERTKNGVIRGQPSPLAQVQQ

Columns and labels:
[1] = target: T1, GST-tagged CABIN1-L-1-2
[2] = target: T2, GST-tagged VIVIT PPTP
[3] = target: T3, GST-tagged VIVIT peptide (VIVIT 10-mer)

Protein	in vitro kinase assay (32P incorporation) [1]	in vitro kinase assay (32P incorporation) [2]	in vitro kinase assay (32P incorporation) [3]
B1	the MAPK family (EKR, JNK, and p38) and MKK4 directly phosphorylate CABIN1 peptide		
B2	ERK2, JNK1, and p38a phosphorylate purified recombinant GST-tagged peptide containing PPTP sequence (CABIN1-L-1-2 and VIVIT PPTP), but not GST-tagged VIVIT peptide	ERK2, JNK1, and p38a phosphorylate purified recombinant GST-tagged peptide containing PPTP sequence (CABIN1-L-1-2 and VIVIT PPTP), but not GST-tagged VIVIT peptide	but not GST-tagged VIVIT peptide
